The values that follow come from patent US12116428B2, “Lipid analogs and liposomes comprising same” (Yeda Research and Development Co. Ltd., priority 2015, dated 2024).

Data set [1] is described as follows: Zeta potential measurement. The note with it: FIG. 11: SUVs of HSPC and DSG-PMPC. The data set is classed as physicochemical.
Data set [2] is described as follows: Micelle formation in water by dynamic light scattering. The note with it: 20 mg/ml in pure water (pH 5), one day. The format is physicochemical.

On to “1,2-distearoyl-sn-glycerol-poly((O-(2-methacryloyloxyethyl) phosphorylcholine) [DSG-PMPC]”, for which the “net charge (zeta potential)” value in data set [1] is recorded as “zero”.

As for “distearoylphosphatidylethanolamine-substituted poly(O-(2-methacryloyloxyethyl)phosphorylcholine) [DSPE-PMPC]”, the micelle formation result in data set [2] was “formed micelles”.
